Data as given in the supplement of paper PMC9732359.
± gives the uncertainty stated by the source.

Experiment: protein stability index of a GFP-peptide fusion (yeast GPS) (PSI 1-4); higher = more stable; sorted into four equal gates, so the index is relative within each strain
How it was run: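 Peptides tiling yeast proteins in 17-residue segments were fused downstream of GFP, with Cherry expressed from the same plasmid. As a pooled library in yeast, mid-log cultures grown in leucine-free medium were sorted into four equal gates by GFP/Cherry fluorescence ratio. Gate plasmids were PCR-amplified and Illumina-sequenced, and barcodes linked reads to strains. Each peptide received a protein stability index equal to the sum of each gate's read frequency times its gate number.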

| Sequence | protein stability index (doa10∆) | protein stability index (pdr5∆) | protein stability index (san1∆) | protein stability index (ubr1∆) |
| --- | --- | --- | --- | --- |
| SEAKRTKFSNPAIPPVI [BRR2] | 2.13 ± 0.06 | 2.25 ± 0.054 | 2.45 ± 0.067 | 2.44 ± 0.056 |
| SECIVSIKSKVVDHHVE [RRP42] | 3.04 ± 0.066 | 3.08 ± 0.08 | 2.71 ± 0.14 | 3.04 ± 0.067 |
| SEDSAVFKATSSTDEES [FAS1] | 3.03 ± 0.1 | 3.21 ± 0.11 | 2.93 ± 0.073 | 2.98 ± 0.067 |
| SEEEEDEEENGSSDEDL [SSN2] | 3.48 ± 0.26 | 3.74 ± 0.24 | 3.63 ± 0.12 | 3.32 ± 0.17 |
| SEEIDSLNEDVEEIKLQ [SMC2] | 3.19 ± 0.12 | 3.41 ± 0.14 | 2.94 ± 0.097 | 3.25 ± 0.077 |
| SEHFDVNDNPDIEAGDD [DIS3] | 2.81 ± 0.058 | 2.93 ± 0.058 | 2.72 ± 0.076 | 3.08 ± 0.045 |
| SEISSLKGKINNEMKSL [SMC1] | 3.09 ± 0.28 | – | 2.65 ± 0.27 | 3.18 ± 0.18 |
| SELAVATTSVMMVNNQT [SRB6] | 3.12 ± 0.2 | – | – | – |
| SELFDEWFEQNNSEQDQ [ISW2] | 2.49 ± 0.067 | 2.54 ± 0.071 | 1.44 ± 0.14 | 1.95 ± 0.051 |
| SELPDIYSRDIGAELKR [SNF2] | – | 3.26 ± 0.13 | 3.38 ± 0.08 | 3.41 ± 0.18 |
| SENHTESDAPPKSTAPI [YOR098C/NUP1] | 2.75 ± 0.058 | 2.24 ± 0.054 | 2.51 ± 0.058 | 2.47 ± 0.06 |
| SEPIDLIIIEKKQKLIE [ITC1] | – | – | 2.87 ± 0.18 | 2.69 ± 0.13 |
| SEPIKEIIDNWEKYEQS [FAS1] | 2.88 ± 0.097 | 3.22 ± 0.07 | 3.23 ± 0.048 | 2.96 ± 0.059 |
| SESQLNSTLKKVESQET [YCS4] | 2.62 ± 0.18 | 3.4 ± 0.22 | 3.31 ± 0.1 | 3.04 ± 0.29 |
| SETDKRQFLHELRRPGV [RPO31] | 1.89 ± 0.056 | 1.73 ± 0.059 | 1.57 ± 0.16 | 1.57 ± 0.069 |
| SETFLQFYVKRWKRFTI [CDC53] | 2.39 ± 0.1 | 2.74 ± 0.063 | 1.73 ± 0.1 | 2.3 ± 0.074 |
| SFEETVEILFEAGASAE [RPO21] | 2.7 ± 0.11 | 2.77 ± 0.09 | 2.89 ± 0.063 | 2.51 ± 0.093 |
| SFGKIYVTKPMVNESDG [RPB2] | 3.12 ± 0.19 | 3.18 ± 0.14 | 3.01 ± 0.2 | 3.26 ± 0.24 |
| SFGSKPTGKEEGDGAKA [YJL041W/NSP1] | 3.59 ± 0.12 | 3.31 ± 0.065 | 3.48 ± 0.11 | 3.21 ± 0.083 |
| SFIFQYYGLVIDLLLLG [PRP8] | 1.48 ± 0.12 | 1.2 ± 0.054 | 1.15 ± 0.16 | 1.24 ± 0.05 |
| SFKYLSNNDEDDKDCTI [RGR1] | 2.51 ± 0.05 | 2.41 ± 0.04 | 2.18 ± 0.055 | 2.62 ± 0.034 |
| SFLFDVLKTLEYKLATY [NUT1] | 2.33 ± 0.062 | 2.18 ± 0.07 | 3 ± 0.097 | 2.03 ± 0.074 |
| SFLFSAIPLQQVLSQSA [SWI1] | 1.58 ± 0.054 | 1.43 ± 0.064 | 1.28 ± 0.091 | 1.39 ± 0.034 |
| SFLSGVKSLLSEEKIRD [SIR4] | 3.01 ± 0.088 | 3.11 ± 0.072 | 2.92 ± 0.063 | 2.92 ± 0.11 |
| SFNMAQIPQQLYQSLTP [SNF5] | 2.16 ± 0.067 | 2.35 ± 0.072 | 2.14 ± 0.054 | 2.12 ± 0.047 |
| SFSFGAPESMKSTASTA [YOR098C/NUP1] | 3.07 ± 0.069 | 3.13 ± 0.091 | 3.31 ± 0.059 | 3.12 ± 0.053 |
| SFVKETKLHSGDYGEEE [SRB8] | 3.61 ± 0.23 | 3.22 ± 0.13 | – | 3.44 ± 0.1 |

| Sequence | protein stability index (doa10∆) | protein stability index (pdr5∆) | protein stability index (san1∆) | protein stability index (ubr1∆) |
| --- | --- | --- | --- | --- |
| SGAITFVNETPRVIEPV [PRP8] | – | 1.96 ± 0.27 | – | 1.11 ± 0.045 |
| SGDSGVYTLACRSCPYE [RPC11] | 1.28 ± 0.13 | 2.01 ± 0.18 | – | 1.26 ± 0.15 |
| SGKETASAPLCSPKLPV [DLS1] | 2.89 ± 0.049 | 3.13 ± 0.05 | 3.15 ± 0.039 | 3.14 ± 0.034 |
| SGNNNGGFTNLTSQAPQ [YDL088C/ASM4] | 3.24 ± 0.071 | 3.31 ± 0.053 | 3.16 ± 0.054 | 3.29 ± 0.042 |
| SGNNSKKRKNKSSGSSM [ROX3] | 2.65 ± 0.14 | 2.94 ± 0.075 | 2.91 ± 0.12 | 3.17 ± 0.068 |
| SGNNYNDINISSIENNI [MED2] | 3.01 ± 0.039 | 3.02 ± 0.036 | 2.89 ± 0.032 | 3.151 ± 0.031 |
| SGQFYFRNPTPLLSNYA [RGR1] | 1.36 ± 0.059 | 1.54 ± 0.045 | 1.8 ± 0.081 | 1.89 ± 0.044 |
| SGSAGANPAGASQPEPT [YJL041W/NSP1] | 2.9 ± 0.18 | 3.2 ± 0.13 | 2.93 ± 0.1 | 3.15 ± 0.1 |
| SGSLFGSNNAQTSRGLF [YGL172W/NUP49] | 3.03 ± 0.073 | 3.01 ± 0.06 | 2.95 ± 0.047 | 2.84 ± 0.064 |
| SGSQNISEFDSFTDILK [RPN12] | 3.37 ± 0.17 | 3.12 ± 0.09 | 3 ± 0.099 | 3.03 ± 0.066 |
| SGTPITQTESKKEENET [SNF2] | 2.77 ± 0.052 | 2.59 ± 0.045 | 2.94 ± 0.046 | 2.82 ± 0.036 |
| SGYGKRKGTREARLPSQ [RPL19A] | – | 3.29 ± 0.28 | – | 3.49 ± 0.26 |
| SHDASRSLASFEQTAFS [SIR4] | 2.86 ± 0.065 | 2.67 ± 0.049 | 2.81 ± 0.053 | 2.67 ± 0.067 |
| SHLWEIDIPLDEQAFYN [RPC37] | – | 2.45 ± 0.27 | 2.98 ± 0.24 | – |
| SIDCLLILILVISFGQP [SWI1] | 1.85 ± 0.043 | 1.64 ± 0.034 | 1.52 ± 0.071 | 1.59 ± 0.029 |
| SIDPPGCVDIDDALHAK [DIS3] | 3.12 ± 0.085 | 3.19 ± 0.072 | 3.25 ± 0.071 | 3.31 ± 0.06 |
| SIGEPATQMTLNTFHFA [RPO21] | 2.63 ± 0.091 | 3.04 ± 0.11 | 3.04 ± 0.15 | 2.75 ± 0.12 |
| SIKDTQNVGQGKLQRKE [BRN1] | 1.96 ± 0.1 | 2.56 ± 0.081 | 1.94 ± 0.11 | 2.7 ± 0.049 |
| SIKSKVVDHHVENELLQ [RRP42] | 3.38 ± 0.13 | 3.24 ± 0.2 | 2.82 ± 0.17 | – |
| SIQMEFMLRKQDPKTLV [SSN2] | 1.73 ± 0.066 | 2 ± 0.049 | 1.82 ± 0.08 | 2.05 ± 0.045 |
| SIREDILECDLLICIGT [SIR2] | 2.45 ± 0.058 | 2.15 ± 0.058 | 2.78 ± 0.055 | 2.39 ± 0.052 |
| SIREQVHMYHKSLALLG [SNF5] | 1.81 ± 0.041 | 1.74 ± 0.041 | 2.37 ± 0.095 | 2.06 ± 0.045 |
| SIWGNGYSGYGNGITNT [SNF5] | 3.26 ± 0.1 | 3.4 ± 0.12 | 3.35 ± 0.084 | 3.34 ± 0.051 |
| SKFYNMKQPYVFVKKHH [SSN2] | 1.58 ± 0.11 | 1.5 ± 0.11 | 1.24 ± 0.14 | 1.28 ± 0.044 |
| SKGFVFNSVQKKSRSNL [YAR002W/NUP60] | 3.03 ± 0.2 | – | 2.96 ± 0.17 | – |
| SKHNERNKSAANNDINS [YDL088C/ASM4] | – | 3.21 ± 0.12 | – | 2.85 ± 0.12 |
| SKISFIDEDKLYPSFKP [SSN2] | 2.96 ± 0.14 | 2.8 ± 0.12 | 2.25 ± 0.087 | 2.54 ± 0.081 |
